Each block holds one molecule with its values, some of them ahead of it.
Assays:
[1] = molecular target: Recombinant mouse RANKL (residues 162-316), receptor-binding ectodomain, trimer (mouse) (UniProt O35235); experiment: SPR
crystal structure = molecular target: the molecule itself; experiment: crystal structure
[2] = molecular target: T1, Extracellular cytokine-binding domain of mouse RANK (all four CRDs, residues 1-198) (mouse, UniProt O35305 31-198); experiment: SPR
T1 sequence (looked up): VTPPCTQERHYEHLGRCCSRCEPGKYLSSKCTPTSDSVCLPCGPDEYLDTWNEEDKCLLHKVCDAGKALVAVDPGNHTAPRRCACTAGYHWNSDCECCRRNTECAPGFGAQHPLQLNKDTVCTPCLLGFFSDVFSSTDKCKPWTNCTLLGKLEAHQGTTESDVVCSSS

fold decrease in affinity against wild-type OPG CRDs [1]: 60 fold
fold slower on-rate than wild-type OPG CRDs [1]: 30 fold
Molecule: Mouse OPG F96A CRD fragment (CRDs 1 through 4) (from UniProt O08712 22-191) (domain or fragment)

Kd [2]: 2090 nM
B1: Recombinant mouse RANKL (residues 162-316), receptor-binding ectodomain, trimer (ligand, UniProt O35235-1 162-316, looked up)
chain: QPFAHLTINAASIPSGSHKVTLSSWYHDRGWAKISNMTLSNGKLRVNQDGFYYLYANICFRHHETSGSVPTDYLQLMVYVVKTSIKIPSSHNLMKGGSTKNWSGNSEFHFYSINVGGFFKLRAGEEISIQVSNPSLLDPDQDATYFGAFKVQDID
stoichiometry N (crystal structure): 3
